# According to publication PMC12395051:
# Tests used:
# [1] = molecular target: Recombinant SARS-CoV-2 spike (S) protein (SARS-CoV-2) (UniProt P0DTC2)
# [2] = molecular target: Recombinant SARS-CoV-2 spike (S) protein (SARS-CoV-2) (UniProt P0DTC2); remark: listed apart in the source
substance,measurement,setting,value
Human native properdin (from UniProt P27918 28-469) (natural protein),"luciferase reporter activity: entry of SARS-CoV-2 S lentiviral pseudoparticles pre-treated with FP (20 ug/ml) into A549-hACE2+TMPRSS2 cells, increase against untreated pseudoparticles",[1],80%
same,"cell binding assay: binding of SARS-CoV-2 S lentiviral pseudoparticles pre-treated with FP (20 ug/ml) to A549-hACE2+TMPRSS2 cells, increase against untreated pseudoparticles",[2],30%
Human complement factor H (from UniProt P08603 19-1231) (natural protein),"luciferase reporter activity: entry of SARS-CoV-2 S lentiviral pseudoparticles pre-treated with FH (20 ug/ml) into A549-hACE2+TMPRSS2 cells, reduction against untreated pseudoparticles",[1],25%
same,"cell binding assay: binding of SARS-CoV-2 S lentiviral pseudoparticles pre-treated with FH (20 ug/ml) to A549-hACE2+TMPRSS2 cells, decrease against untreated pseudoparticles",[2],35%
